Experimental data reported in the RNAGym collection of RNA variant scans (doi:10.7554/elife.80360).

B1: CPEB3 Ribozyme (parent)
chain: GGGGGCCACAGCAGAAGCGUUCACGUCGCGGCCCCUGUCAGAUUCUGGUGAAUCUGCGAAUUCUGCUGU

Variants of: B1
Test: self-cleavage, relative activity (ratio to wild type); higher = more cleavage; co-transcriptional

Variant | self-cleavage
AGGGGCCACAGCAGAAGCGUACACGUCGCGGCCCCUGUCAGAUUCUGGUGAAUCUGCGAAUUCUGCUGU [G1A U21A] | 0.132
AGGGGCCACAGCAGAAGCGUGCACGUCGCGGCCCCUGUCAGAUUCUGGUGAAUCUGCGAAUUCUGCUGU [G1A U21G] | 0.0454
AGGGGCCACAGCAGAAGCGUUCACGUCGCGGCCCCUGUCAGAUUCUCGUGAAUCUGCGAAUUCUGCUGU [G1A G47C] | 0.0423
AGGGGCCACAGCAGAAGCGUUCACGUCGCGGCCCCUGUCAGAUUCUUGUGAAUCUGCGAAUUCUGCUGU [G1A G47U] | 0.104
AGGGGCCACAGCAGAAGCGUUCACGUCGCGGCCCCUGUCAGAUUCUAGUGAAUCUGCGAAUUCUGCUGU [G1A G47A] | 0.104
AGGGGCCACAGCAGAAGCGUUCACGUCGCGGCCCCUGUCAGAUUCUGGUGAAUCUGCGAAUUCUGCUGA [G1A U69A] | 0.0727
AGGGGCCACAGCAGAAGCGUUCACGUCGCGGCCCCUGUCAGAUUCUGGUGAAUCUGCGAAUUCUGCUGG [G1A U69G] | 0.23
AGGGGCCACAGCAGAAGCGUUCACGUCGCGGCCCCUGUCAGAUUCUGGUGAAUCUGCGAAUUCUGCUGC [G1A U69C] | 0.187
CGGGGCCACAGCAGAAGCGUUCACGUCGCGGCCCCUGUCAGGUUCUGGUGAAUCUGCGAAUUCUGCUGU [G1C A42G] | 0.152
CGGGGCCACAGCAGAAGCGUUCACGUCGCGGCCCCUGUCAGCUUCUGGUGAAUCUGCGAAUUCUGCUGU [G1C A42C] | 0.274
AGGGGCCACAGCAGAAGCGUUCACGUCGCGGCCCCUGUCAGAUUCUGGUGAAUCUGCGAAUACUGCUGU [G1A U62A] | 0.0846
AGGGGCCACAGCAGAAGCGGUCACGUCGCGGCCCCUGUCAGAUUCUGGUGAAUCUGCGAAUUCUGCUGU [G1A U20G] | 0.0728
AGGGGCCACAGCAGAAGCGCUCACGUCGCGGCCCCUGUCAGAUUCUGGUGAAUCUGCGAAUUCUGCUGU [G1A U20C] | 0.0855
AGGGGCCACAGCAGAAGCGAUCACGUCGCGGCCCCUGUCAGAUUCUGGUGAAUCUGCGAAUUCUGCUGU [G1A U20A] | 0.0538
CGGGGCCACAGCAGAAGCGUUCACGUCGCGGCCCCUGUCAGAUUCUGGUGAAUCUGCGAAUUCUGCUGU [G1C] | 0.219
AGGGGCCACAGCAGAAGCGUUCACGUCGCAGCCCCUGUCAGAUUCUGGUGAAUCUGCGAAUUCUGCUGU [G1A G30A] | 0.0887
AGGGGCCACAGCAGAAGCGUUCACGUCGCCGCCCCUGUCAGAUUCUGGUGAAUCUGCGAAUUCUGCUGU [G1A G30C] | 0.0357
AGGGGCCACAGCAGAAGCGUUCACGGCGCGGCCCCUGUCAGAUUCUGGUGAAUCUGCGAAUUCUGCUGU [G1A U26G] | 0.0674
AGGGGCCACAGCAGAAGCGUUCACGCCGCGGCCCCUGUCAGAUUCUGGUGAAUCUGCGAAUUCUGCUGU [G1A U26C] | 0.138
AGGGGCCACAGCAGAAGCGUUCACGACGCGGCCCCUGUCAGAUUCUGGUGAAUCUGCGAAUUCUGCUGU [G1A U26A] | 0.077

Variant | self-cleavage
AGGGGCCACAGCAGAAGCGUUCACGUCGCGGCCCCUGUCAGAUUCUGGUGAAUCAGCGAAUUCUGCUGU [G1A U55A] | 0.059
AGGGGCCACAGCAGAAGCGUUCACGUCGCGGCCCCUGUCAGAUUCUGGUGAAUCCGCGAAUUCUGCUGU [G1A U55C] | 0.0976
AGGGGCCACAGCAGAAGCGUUCACGUCGCGGCCCCUGUCAGAUCCUGGUGAAUCUGCGAAUUCUGCUGU [G1A U44C] | 0.135
AGGGGCCACAGCAGAAGCGUUCACGUCGCGGCCCCUGUCAGAUACUGGUGAAUCUGCGAAUUCUGCUGU [G1A U44A] | 0.0757
CGGGGCCACAGCUGAAGCGUUCACGUCGCGGCCCCUGUCAGAUUCUGGUGAAUCUGCGAAUUCUGCUGU [G1C A13U] | 0.155
CGGGGCCACAGCCGAAGCGUUCACGUCGCGGCCCCUGUCAGAUUCUGGUGAAUCUGCGAAUUCUGCUGU [G1C A13C] | 0.143
CGGGGCCACAGCGGAAGCGUUCACGUCGCGGCCCCUGUCAGAUUCUGGUGAAUCUGCGAAUUCUGCUGU [G1C A13G] | 0.183
AGGGGCCACAGCAGAAGCGUUCACGUCGCGGCCCCGGUCAGAUUCUGGUGAAUCUGCGAAUUCUGCUGU [G1A U36G] | 0.0321
AGGGGCCACAGCAGAAGCGUUCACGUCGCGGCCCCAGUCAGAUUCUGGUGAAUCUGCGAAUUCUGCUGU [G1A U36A] | 0.0492
AGGGGCCACAGCAGAAGCGUUCACGUCGCGGCCCCCGUCAGAUUCUGGUGAAUCUGCGAAUUCUGCUGU [G1A U36C] | 0.0487
AGGGGCCACAGCAGAAGCGUUCACGUCGCGGCCCCUGUCAGAUUCUGGUGAAUCUGCGAAUUCUGCUCU [G1A G68C] | 0.222
AGGGGCCACAGCAGAAGCGUUCACGUCGCGGCCCCUGUCAGAUUCUGGUGAAUCUGCGAAUUCUGCUUU [G1A G68U] | 0.159
AGGGGCCACAGCAGAAGCGUUCACGUCGCGGCCCCUGUCAGAUUCUGGUGAAUCUGCGAAUUCUGCUAU [G1A G68A] | 0.136
AGGGGCCACAGCAGAAGCGUUCACGUCGCGGCCCCUGUCAGAUUCAGGUGAAUCUGCGAAUUCUGCUGU [G1A U46A] | 0.134
AGGGGCCACAGCAGAAGCGUUCACGUCGCGGCCCCUGUCAGAUUCCGGUGAAUCUGCGAAUUCUGCUGU [G1A U46C] | 0.0905
AGGGGCCACAGCAGAAGCGUUCACGUCGCGGCCCCUGUCAGAUUCGGGUGAAUCUGCGAAUUCUGCUGU [G1A U46G] | 0.0453
CGGGGCCACAGCAGAGGCGUUCACGUCGCGGCCCCUGUCAGAUUCUGGUGAAUCUGCGAAUUCUGCUGU [G1C A16G] | 0.254
CGGGGCCACAGCAGAUGCGUUCACGUCGCGGCCCCUGUCAGAUUCUGGUGAAUCUGCGAAUUCUGCUGU [G1C A16U] | 0.159
AGGGGCCACAGCAGAAGCGUUCACGUCGCGACCCCUGUCAGAUUCUGGUGAAUCUGCGAAUUCUGCUGU [G1A G31A] | 0.0627
